Measurements published in doi:10.1101/2023.12.19.572481 (bioRxiv, 2023).

Molecular target: the molecule itself
Test: high-speed atomic force microscopy

B1: Recombinant Human Neuronal Pentraxin 1 Protein (NP1) (natural protein, UniProt Q15818 23-432, looked up)
chain: QDFGPTRFICTSVPVDADMCAASVAAGGAEELRSSVLQLRETVLQQKETILSQKETIRELTAKLGRCESQSTLDPGAGEARAGGGRKQPGSGKNTMGDLSRTPAAETLSQLGQTLQSLKTRLENLEQYSRLNSSSQTNSLKDLLQSKIDELERQVLSRVNTLEEGKGGPRNDTEERVKIETALTSLHQRISELEKGQKDNRPGDKFQLTFPLRTNYMYAKVKKSLPEMYAFTVCMWLKSSATPGVGTPFSYAVPGQANELVLIEWGNNPMEILINDKVAKLPFVINDGKWHHICVTWTTRDGVWEAYQDGTQGGSGENLAPYHPIKPQGVLVLGQEQDTLGGGFDATQAFVGELAHFNIWDRKLTPGEVYNLATCSTKALSGNVIAWAESHIEIYGGATKWTFEACRQIN
B1: binds.
